The data set concerns the target MBP-AtdPHR1 (Arabidopsis thaliana) (UniProt Q94CL7). The experiment in a line: SPR. Conditions: SPR (Biacore 3000, SA chip, ~500 RU DNA): 10 mM HEPES pH 7.5, 200 mM NaCl, 0.01% Surfactant P-20, 25 C, 40 ul/min, with or without Pi/InsP6.

Sequence of MBP-AtdPHR1 (Arabidopsis thaliana) (Q94CL7 208-362): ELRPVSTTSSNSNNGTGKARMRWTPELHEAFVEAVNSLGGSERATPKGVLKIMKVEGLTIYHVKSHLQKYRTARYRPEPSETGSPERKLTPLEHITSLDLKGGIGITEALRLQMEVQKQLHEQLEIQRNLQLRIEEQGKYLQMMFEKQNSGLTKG

For “ACACTTCGTCACGCTAAAGCTAAGCATATCCGCTTTCATATTCCTTTACACAAC (double strand) [1x P1BS probe]”, the Kd came out at 707 nM.

The values are drawn from paper PMC5651819, “AtSPX1 affects the AtPHR1–DNA-binding equilibrium by binding monomeric AtPHR1 in solution” (Biochemical Journal, 2017).
